“And” between values parts separate entries of the source, which are not always exact repeats. Identical values can stand only once. Like-named read-outs stand apart in the source and are kept apart here.
Legend:
[1] = test system: H2A-H2B heterodimer (Xenopus laevis); assay: EMSA
[2] = test system: H2A-H2B heterodimer;yNap1 (Xenopus laevis;Saccharomyces cerevisiae); assay: EMSA
[3] = target: yNap1_IF1 (G225D, S237D, T244D, D246R) (Saccharomyces cerevisiae) (UniProt P25293); assay: native MS
[4] = target: yNap1_IF1 (G225D, S237D, T244D, D246R) (Saccharomyces cerevisiae) (UniProt P25293); assay: native MS; remark: listed apart in the source

Substance | Kd [1] [nM] | Kd [2] [nM] | stoichiometry N [3] | stoichiometry N [4]
(H3-H4)2-DNA tetrasome on 147-bp 601 DNA | 29 | 940 |  | 
yNap1_IF1 (G225D, S237D, T244D, D246R) (from UniProt P25293 1-417) (natural protein) |  |  | 2 and 4 | 2

— PMC4931181
